The assay addresses human melanocortin 4 receptor (human) (UniProt P32245). As to the kind of experiment: cell-based or functional assay.

human melanocortin 4 receptor (human), sequence (P32245 whole entry): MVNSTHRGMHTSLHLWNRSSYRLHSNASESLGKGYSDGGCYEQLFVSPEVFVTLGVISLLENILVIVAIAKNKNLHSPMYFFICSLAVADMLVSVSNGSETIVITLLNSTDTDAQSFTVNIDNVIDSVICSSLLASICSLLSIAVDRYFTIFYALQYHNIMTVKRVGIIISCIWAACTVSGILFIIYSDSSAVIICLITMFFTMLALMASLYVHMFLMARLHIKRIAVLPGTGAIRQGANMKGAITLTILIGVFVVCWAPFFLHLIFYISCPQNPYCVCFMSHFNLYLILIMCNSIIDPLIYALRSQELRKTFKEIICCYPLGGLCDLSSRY

The substance “AgRP (from UniProt O00253 87-132) (ligand)” registered a pA2 (Schild analysis, agonist NDP-MSH, cAMP) of 8.7.

Source of the values: patent US20210179666A1, “CYCLIC PEPTIDES AND METHODS OF USE THEREOF” (Regents of the University of Minnesota, priority 2019, published 2021).
